# Biological target: T1, human claudin 18.2 (CLDN18.2) (human)
# T1 construct: also called claudin 18 variant 2; claudin-18a2.1
# Assay: FACS on HEK293-CLDN18.2 stable pool, FITC-based detection
# T1 sequence (chain, as listed by the source limits assumed): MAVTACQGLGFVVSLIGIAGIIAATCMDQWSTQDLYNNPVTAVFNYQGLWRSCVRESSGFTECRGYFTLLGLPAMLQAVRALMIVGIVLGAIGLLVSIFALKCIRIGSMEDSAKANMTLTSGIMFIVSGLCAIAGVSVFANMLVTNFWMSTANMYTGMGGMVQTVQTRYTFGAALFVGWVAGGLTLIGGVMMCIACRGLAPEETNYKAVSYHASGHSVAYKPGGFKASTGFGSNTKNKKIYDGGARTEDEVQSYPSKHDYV
row,Binder,EC50 [nM]
1,"humanized anti-CLDN18.2 mAb 5-E22-H1L1 (antibody, V domains shown, Humanized VH and VL fused to the constant regions of human IgG1 heavy chain and kappa light chain) VH: QVQLVQSGVEVKKPGASVKVSCKASGYTITDNYMHWVRQAPGQGLEWIGEIYPGSGNTYFNEKFKNRATLTADKSTTTAYMELKSLQFDDTAVYFCARGFPYYAMDYWGQGTTVTVSS VL: EIVMTQSPATLSLSPGERATLSCHARQNINVWLSWYQQKPGQAPRLLIYKASNLHTGVPARFSGSGSGTDFTLTISSLEPEDFAVYYCQQGQNYPLTFGGGTKVEIK",59
2,"humanized anti-CLDN18.2 mAb 5-E22-H1L3 (antibody, V domains shown, Humanized VH and VL fused to the constant regions of human IgG1 heavy chain and kappa light chain) VH: QVQLVQSGVEVKKPGASVKVSCKASGYTITDNYMHWVRQAPGQGLEWIGEIYPGSGNTYFNEKFKNRATLTADKSTTTAYMELKSLQFDDTAVYFCARGFPYYAMDYWGQGTTVTVSS VL: DIVMTQSPLSLPVTPGEPASISCHARQNINVWLSWYLQKPGQSPQLLIYKASNLHTGVPDRFSGSGSGTDFTLKISRVEAEDVGVYYCQQGQNYPLTFGQGTKVEIK",61
3,"humanized anti-CLDN18.2 mAb 5-E22-H1L2 (antibody, V domains shown, Humanized VH and VL fused to the constant regions of human IgG1 heavy chain and kappa light chain) VH: QVQLVQSGVEVKKPGASVKVSCKASGYTITDNYMHWVRQAPGQGLEWIGEIYPGSGNTYFNEKFKNRATLTADKSTTTAYMELKSLQFDDTAVYFCARGFPYYAMDYWGQGTTVTVSS VL: EIVLTQSPATLSLSPGERATLSCHARQNINVWLSWYQQKPGQAPRLLIYKASNLHTGIPARFSGSGSGTDFTLTISSLEPEDFAVYYCQQGQNYPLTFGGGTKVEIK",259
4,"humanized anti-CLDN18.2 mAb 2-C3-H1L1 (antibody, V domains shown, Humanized VH and VL fused to the constant regions of human IgG1 heavy chain and kappa light chain) VH: QVTLRESGPALVKPTQTLTLTCTASGFTFSSYGMSWVRQPPGKALEWVATISGGGSYTYYNPSLKDRFTISRDISANQLVLKVTNMDPADTATYFCARQSRGNAMDYWGQGTTVTVSS VL: DIQMTQSPSTLSASVGDRVTITCKSSQSLLNSGNQKNYLTWYQQKPGKAPKLLIYWASTRESGVPSRFSGSGSGTAFTLTISSLQPDDFATYYCQNDYSYPLTFGGGTKVEIK",9.8
5,"humanized anti-CLDN18.2 mAb 6-J11-H1L1 (antibody, V domains shown, Humanized VH and VL fused to the constant regions of human IgG1 heavy chain and kappa light chain) VH: EVQLVESGGGLVQPGGSLRLSCAASGFIFSSFGMHWVRQAPGKGLEWVAYISSGRSTMYYADSVKGRFTISRDNSKNTLYLQMNSLTAEDTAVYYCARGGFYGNSLDYWGQGTLVTVSS VL: DIQMTQSPSSLSASVGDRVTITCKSSLSLLNSGNQKNYLTWYQQKPGKAPKLLIYWASTRESGVPSRFSGSGSGTDFTLTISSLQPEDFATYSCQNAYSYPLTFGQGTKVEIK",11.2
6,"humanized anti-CLDN18.2 mAb 2-C3-H2L1 (antibody, V domains shown, Humanized VH and VL fused to the constant regions of human IgG1 heavy chain and kappa light chain) VH: QVTLRESGPALVKPTQTLTLTCTFSGFTFSSYGMSWIRQPPGKALEWLATISGGGSYTYYLDSLKDRFTISRDISKNQVVLTVTNMDPADTATYFCARQSRGNAMDYWGQGTTVTVSS VL: DIQMTQSPSTLSASVGDRVTITCKSSQSLLNSGNQKNYLTWYQQKPGKAPKLLIYWASTRESGVPSRFSGSGSGTAFTLTISSLQPDDFATYYCQNDYSYPLTFGGGTKVEIK",8.8
7,"humanized anti-CLDN18.2 mAb 2-C3-H2L2 (antibody, V domains shown, Humanized VH and VL fused to the constant regions of human IgG1 heavy chain and kappa light chain) VH: QVTLRESGPALVKPTQTLTLTCTFSGFTFSSYGMSWIRQPPGKALEWLATISGGGSYTYYLDSLKDRFTISRDISKNQVVLTVTNMDPADTATYFCARQSRGNAMDYWGQGTTVTVSS VL: DIQMTQSPSTLSASVGDRVTITCKSSQSLLNSGNQKNYLTWYQQKPGKAPKLLIYWASTRESGVPSRFSGSGSGTEFTLTISSLQPDDFATYYCQNDYSYPLTFGGGTKVEIK",8
8,"humanized anti-CLDN18.2 mAb 2-C3-H1L2 (antibody, V domains shown, Humanized VH and VL fused to the constant regions of human IgG1 heavy chain and kappa light chain) VH: QVTLRESGPALVKPTQTLTLTCTASGFTFSSYGMSWVRQPPGKALEWVATISGGGSYTYYNPSLKDRFTISRDISANQLVLKVTNMDPADTATYFCARQSRGNAMDYWGQGTTVTVSS VL: DIQMTQSPSTLSASVGDRVTITCKSSQSLLNSGNQKNYLTWYQQKPGKAPKLLIYWASTRESGVPSRFSGSGSGTEFTLTISSLQPDDFATYYCQNDYSYPLTFGGGTKVEIK",9.1

# Continued, values first:
row,EC50 [nM],Binder
1,12.1,"humanized anti-CLDN18.2 mAb 5-E22-H3L1 (antibody, V domains shown, Humanized VH and VL fused to the constant regions of human IgG1 heavy chain and kappa light chain) VH: QVQLVQSGAEVKKPGASVKVSCKASGYTITDNYMHWVRQAPGQGLEWIGEIYPGSGNTYYAEKFKNRATLTADKSISTAYMELSRLRSDDTAVYFCARGFPYYAMDYWGQGTLVTVSS VL: EIVMTQSPATLSLSPGERATLSCHARQNINVWLSWYQQKPGQAPRLLIYKASNLHTGVPARFSGSGSGTDFTLTISSLEPEDFAVYYCQQGQNYPLTFGGGTKVEIK"
2,19.4,"humanized anti-CLDN18.2 mAb 5-E22-H3L2 (antibody, V domains shown, Humanized VH and VL fused to the constant regions of human IgG1 heavy chain and kappa light chain) VH: QVQLVQSGAEVKKPGASVKVSCKASGYTITDNYMHWVRQAPGQGLEWIGEIYPGSGNTYYAEKFKNRATLTADKSISTAYMELSRLRSDDTAVYFCARGFPYYAMDYWGQGTLVTVSS VL: EIVLTQSPATLSLSPGERATLSCHARQNINVWLSWYQQKPGQAPRLLIYKASNLHTGIPARFSGSGSGTDFTLTISSLEPEDFAVYYCQQGQNYPLTFGGGTKVEIK"
3,14.7,"humanized anti-CLDN18.2 mAb 5-E22-H3L3 (antibody, V domains shown, Humanized VH and VL fused to the constant regions of human IgG1 heavy chain and kappa light chain) VH: QVQLVQSGAEVKKPGASVKVSCKASGYTITDNYMHWVRQAPGQGLEWIGEIYPGSGNTYYAEKFKNRATLTADKSISTAYMELSRLRSDDTAVYFCARGFPYYAMDYWGQGTLVTVSS VL: DIVMTQSPLSLPVTPGEPASISCHARQNINVWLSWYLQKPGQSPQLLIYKASNLHTGVPDRFSGSGSGTDFTLKISRVEAEDVGVYYCQQGQNYPLTFGQGTKVEIK"
4,11.4,"humanized anti-CLDN18.2 mAb 6-J11-H2L1 (antibody, V domains shown, Humanized VH and VL fused to the constant regions of human IgG1 heavy chain and kappa light chain) VH: EVQLVESGGGLVQPGGSLRLSCAASGFIFSSFGMHWVRQAPGKGLEWVAYISSGRSTMYYADSVKGRFTISRDNSKNTLYLQMNSLRSEDTAVYYCARGGFYGNSLDYWGQGTLVTVSS VL: DIQMTQSPSSLSASVGDRVTITCKSSLSLLNSGNQKNYLTWYQQKPGKAPKLLIYWASTRESGVPSRFSGSGSGTDFTLTISSLQPEDFATYSCQNAYSYPLTFGQGTKVEIK"

# Reference: patent US20200399364A1 (PHANES THERAPEUTICS, published 2020)
